T1: TNF-R2 (a protein having the amino acid sequence, Accession No. M55994 registered at GENBANK) (UniProt P20333 23-257, limits assumed)
T1 construct: also called TNF receptor with 75 kilo daltons
T1 sequence (looked up): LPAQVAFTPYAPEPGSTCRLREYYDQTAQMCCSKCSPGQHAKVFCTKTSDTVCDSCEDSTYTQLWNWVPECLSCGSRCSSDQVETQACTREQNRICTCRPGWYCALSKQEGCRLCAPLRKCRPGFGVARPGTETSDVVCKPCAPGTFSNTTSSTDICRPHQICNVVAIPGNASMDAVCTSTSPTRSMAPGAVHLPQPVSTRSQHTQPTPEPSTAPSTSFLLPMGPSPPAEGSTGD

T2: TNF-R1 (a protein having the amino acid sequence, Accession No. M58286 registered at GENBANK) (UniProt P19438 30-211, limits assumed)
T2 construct: also called TNF receptor having a molecular weight of 55 kilo daltons
T2 sequence (looked up): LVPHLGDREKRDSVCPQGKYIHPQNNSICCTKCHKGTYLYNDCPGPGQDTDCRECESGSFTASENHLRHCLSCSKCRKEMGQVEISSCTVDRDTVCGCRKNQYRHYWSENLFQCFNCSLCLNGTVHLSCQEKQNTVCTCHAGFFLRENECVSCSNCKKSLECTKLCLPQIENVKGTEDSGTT


Assays:
[1] = target: T1, TNF-R2 (a protein having the amino acid …); experiment: SPR (BIACORE 2000), receptor on sensor tip; grade 2 = 0.5 to 0.1 time that of recombinant TNF-α
Source text: (§1) Using the above detector based on surface plasmon resonance effect again, the resulting clones binding to TNF-R1 (or TNF-R2) were subjected to the remaining sensor tip conjugated with TNF-R2 (or TNF-R1) to measure receptor binding affinity and select clones having a variation of receptor binding affinity. […] The resulting DNAs were digested with restrict enzymes NdeI and BamHI to obtain DNA fragments. The resulting DNA fragments were introduced into a plasmid vector containing T7 promoter region, T7 terminator region, ampicillin resistant gene region and ColE1/Ori region (product name “pET-3a”, manufactured by “Novagen®” (EMD Biosciences, Inc.)) at the position of the above restriction sites. The resulting plasmid was introduced into E. coli BL21DE3 strain to obtain a transformed E. coli for producing the TNF mutant proteins. The obtained transformed E. coli was cultured according to usual method and centrifuged to collect E. coli pellet. The resulting pellet was washed twice with TES buffer (pH 8.0) (20 mM Tris-HCl, 10 mM ethylene diamine tetraacetic acid and 0.5 M sodium chloride) and admixed with TES buffer (pH 8.0) containing 0.2 mg/ml lysozyme. The resulting suspension was sonicated according to usual manner, and centrifuged to collect a precipitate containing the produced TNF mutant protein. The resulting precipitate was treated three times in a manner of admixing with TES buffer containing 1 (w/w) % Triton X-100, removed from supernatant by centrifuging, admixed with 50 mM Tris-HCl (pH 7.0) containing 8 M guanidine hydrochloride and 50 mM dithiothreitol, with stirring for 16 hours at ambient temperature under shielded condition, and centrifuged to collect a supernatant. The resulting supernatant was gently admixed with 100 time volumes of a aqueous solution containing 1 M Tris, 0.9 (w/v) % sodium chloride, 0.4 M L-arginine chloride, 2.5 mM reduced glutathione, 0.5 mM oxidized glutathione and 0.05 (w/v) % Tween 20, and kept at 4° C. for 16 hours.

[2] = target: T2, TNF-R1 (a protein having the amino acid …); experiment: SPR (BIACORE 2000), receptor on sensor tip; grade 3 = 0.5 to 2 times that of recombinant TNF-α
Source text: as §1

[3] = target: T2, TNF-R1 (a protein having the amino acid …); experiment: SPR (BIACORE 2000), receptor on sensor tip; grade 4 = two times or more that of recombinant TNF-α
Source text: as §1

[4] = target: T1, TNF-R2 (a protein having the amino acid …); experiment: SPR (BIACORE 2000), receptor on sensor tip; grade 1 = 0.001 to 0.1 time that of recombinant TNF-α
Source text: as §1

[5] = target: T2, TNF-R1 (a protein having the amino acid …); experiment: SPR (BIACORE 2000), receptor on sensor tip; grade 2 = 0.5 to 0.1 time that of recombinant TNF-α
Source text: as §1

Row | Binder | binding affinity relative to recombinant TNF-α [1] | binding affinity relative to recombinant TNF-α [2] | binding affinity relative to recombinant TNF-α [3] | binding affinity relative to recombinant TNF-α [4] | binding affinity relative to recombinant TNF-α [5]
1 | TNF mutant protein of clone No. 2 (ligand, Mutant of lysine-replaced TNF, made in E. coli) VRSSSRTPSDMPVAHVVANPQAEGQLQWTNGYANALLANGVELRDNQLVVPSEGLYLIYSQVLFSGQGCPSTHVLLTHTISRIAVSYQTPVNLLSAIRSPCQRETPEGAEANPWYEPIYLGGVFQLEPGDRLSAEINRPDYLDFAESGQVYFGIIAL | 0.1 to 0.5 fold | 0.5 to 2 fold |  |  | 
2 | TNF mutant protein of clone No. 33 (ligand, Mutant of lysine-replaced TNF, made in E. coli) VRSSSRTPSDMPVAHVVANPQAEGQLQWLNRRANALLANGVELRDNQLVVPSEGLYLIYSQVLFSGQGCPSTHVLLTHTISRINHRYQDPVNLLSAIRSPCQRETPEGAEANPWYEPIYLGGVFQLEPGDRLSAEINRPDYLDFAESGQVYFGIIAL |  |  | ≥ 2 fold | 0.001 to 0.1 fold | 
3 | TNF mutant protein of clone No. 25 (ligand, Mutant of lysine-replaced TNF, made in E. coli) VRSSSRTPSDMPVAHVVANPQAEGQLQWLNRRANALLANGVELRDNQLVVPSEGLYLIYSQVLFSGQGCPSTHVLLTHTISRISKTYSHPVNLLSAIRSPCQRETPEGAEANPWYEPIYLGGVFQLEPGDRLSAEINRPDYLDFAESGQVYFGIIAL |  |  | ≥ 2 fold | 0.001 to 0.1 fold | 
4 | TNF mutant protein of clone No. 7 (ligand, Mutant of lysine-replaced TNF, made in E. coli) VRSSSRTPSDMPVAHVVANPQAEGQLQWHNNTANALLANGVELRDNQLVVPSEGLYLIYSQVLFSGQGCPSTHVLLTHTISRIAVSYQTPVNLLSAIRSPCQRETPEGAEANPWYEPIYLGGVFQLEPGDRLSAEINRPDYLDFDSNGQVYFGIIAL |  |  |  | 0.001 to 0.1 fold | 0.1 to 0.5 fold
5 | TNF mutant protein of clone No. 16 (ligand, Mutant of lysine-replaced TNF, made in E. coli) VRSSSRTPSDMPVAHVVANPQAEGQLQWLNRRANALLANGVELRDNQLVVPSEGLYLIYSQVLFSGQGCPSTHVLLTHTISRISSTYPDPVNLLSAIRSPCQRETPEGAEANPWYEPIYLGGVFQLEPGDRLSAEINRPDYLDFAESGQVYFGIIAL | 0.1 to 0.5 fold |  | ≥ 2 fold |  | 
6 | TNF mutant protein of clone No. 32 (ligand, Mutant of lysine-replaced TNF, made in E. coli) VRSSSRTPSDMPVAHVVANPQAEGQLQWLNRRANALLANGVELRDNQLVVPSEGLYLIYSQVLFSGQGCPSTHVLLTHTISRITDRYSSPVNLLSAIRSPCQRETPEGAEANPWYEPIYLGGVFQLEPGDRLSAEINRPDYLDFAESGQVYFGIIAL | 0.1 to 0.5 fold |  | ≥ 2 fold |  | 
7 | TNF mutant protein of clone No. 19 (ligand, Mutant of lysine-replaced TNF, made in E. coli) VRSSSRTPSDMPVAHVVANPQAEGQLQWLNRRANALLANGVELRDNQLVVPSEGLYLIYSQVLFSGQGCPSTHVLLTHTISRISYNYNGPVNLLSAIRSPCQRETPEGAEANPWYEPIYLGGVFQLEPGDRLSAEINRPDYLDFAESGQVYFGIIAL |  |  | ≥ 2 fold | 0.001 to 0.1 fold | 
8 | TNF mutant protein of clone No. 24 (ligand, Mutant of lysine-replaced TNF, made in E. coli) VRSSSRTPSDMPVAHVVANPQAEGQLQWLNRRANALLANGVELRDNQLVVPSEGLYLIYSQVLFSGQGCPSTHVLLTHTISRITHKYPQPVNLLSAIRSPCQRETPEGAEANPWYEPIYLGGVFQLEPGDRLSAEINRPDYLDFAESGQVYFGIIAL |  |  | ≥ 2 fold | 0.001 to 0.1 fold | 
9 | TNF mutant protein of clone No. 20 (ligand, Mutant of lysine-replaced TNF, made in E. coli) VRSSSRTPSDMPVAHVVANPQAEGQLQWLNRRANALLANGVELRDNQLVVPSEGLYLIYSQVLFSGQGCPSTHVLLTHTISRISSAYASPVNLLSAIRSPCQRETPEGAEANPWYEPIYLGGVFQLEPGDRLSAEINRPDYLDFAESGQVYFGIIAL | 0.1 to 0.5 fold | 0.5 to 2 fold |  |  | 
10 | TNF mutant protein of clone No. 23 (ligand, Mutant of lysine-replaced TNF, made in E. coli) VRSSSRTPSDMPVAHVVANPQAEGQLQWLNRRANALLANGVELRDNQLVVPSEGLYLIYSQVLFSGQGCPSTHVLLTHTISRITTAYSGPVNLLSAIRSPCQRETPEGAEANPWYEPIYLGGVFQLEPGDRLSAEINRPDYLDFAESGQVYFGIIAL |  |  | ≥ 2 fold | 0.001 to 0.1 fold | 
11 | TNF mutant protein of clone No. 34 (ligand, Mutant of lysine-replaced TNF, made in E. coli) VRSSSRTPSDMPVAHVVANPQAEGQLQWLNRRANALLANGVELRDNQLVVPSEGLYLIYSQVLFSGQGCPSTHVLLTHTISRISADYPHPVNLLSAIRSPCQRETPEGAEANPWYEPIYLGGVFQLEPGDRLSAEINRPDYLDFAESGQVYFGIIAL | 0.1 to 0.5 fold | 0.5 to 2 fold |  |  | 
12 | TNF mutant protein of clone No. 30 (ligand, Mutant of lysine-replaced TNF, made in E. coli) VRSSSRTPSDMPVAHVVANPQAEGQLQWLNRRANALLANGVELRDNQLVVPSEGLYLIYSQVLFSGQGCPSTHVLLTHTISRITPGYPSPVNLLSAIRSPCQRETPEGAEANPWYEPIYLGGVFQLEPGDRLSAEINRPDYLDFAESGQVYFGIIAL | 0.1 to 0.5 fold | 0.5 to 2 fold |  |  | 
13 | TNF mutant protein of clone No. 9 (ligand, Mutant of lysine-replaced TNF, made in E. coli) VRSSSRTPSDMPVAHVVANPQAEGQLQWSNPMANALLANGVELRDNQLVVPSEGLYLIYSQVLFSGQGCPSTHVLLTHTISRIAVSYQTPVNLLSAIRSPCQRETPEGAEANPWYEPIYLGGVFQLEPGDRLSAEINRPDYLDFANPGQVYFGIIAL |  |  |  | 0.001 to 0.1 fold | 0.1 to 0.5 fold
14 | TNF mutant protein of clone No. 27 (ligand, Mutant of lysine-replaced TNF, made in E. coli) VRSSSRTPSDMPVAHVVANPQAEGQLQWLNRRANALLANGVELRDNQLVVPSEGLYLIYSQVLFSGQGCPSTHVLLTHTISRITPAYPRPVNLLSAIRSPCQRETPEGAEANPWYEPIYLGGVFQLEPGDRLSAEINRPDYLDFAESGQVYFGIIAL | 0.1 to 0.5 fold | 0.5 to 2 fold |  |  | 
15 | TNF mutant protein of clone No. 21 (ligand, Mutant of lysine-replaced TNF, made in E. coli) VRSSSRTPSDMPVAHVVANPQAEGQLQWLNRRANALLANGVELRDNQLVVPSEGLYLIYSQVLFSGQGCPSTHVLLTHTISRITSAYGPPVNLLSAIRSPCQRETPEGAEANPWYEPIYLGGVFQLEPGDRLSAEINRPDYLDFAESGQVYFGIIAL |  |  | ≥ 2 fold | 0.001 to 0.1 fold | 
16 | TNF mutant protein of clone No. 26 (ligand, Mutant of lysine-replaced TNF, made in E. coli) VRSSSRTPSDMPVAHVVANPQAEGQLQWLNRRANALLANGVELRDNQLVVPSEGLYLIYSQVLFSGQGCPSTHVLLTHTISRISSHYRFPVNLLSAIRSPCQRETPEGAEANPWYEPIYLGGVFQLEPGDRLSAEINRPDYLDFAESGQVYFGIIAL |  |  | ≥ 2 fold | 0.001 to 0.1 fold | 
17 | TNF mutant protein of clone No. 8 (ligand, Mutant of lysine-replaced TNF, made in E. coli) VRSSSRTPSDMPVAHVVANPQAEGQLQWRNEHANALLANGVELRDNQLVVPSEGLYLIYSQVLFSGQGCPSTHVLLTHTISRIAVSYQTPVNLLSAIRSPCQRETPEGAEANPWYEPIYLGGVFQLEPGDRLSAEINRPDYLDFNNAGQVYFGIIAL |  |  |  | 0.001 to 0.1 fold | 0.1 to 0.5 fold
